Assay results as given in the supplement of paper PMC9112550, “Optimization of the antimicrobial peptide Bac7 by deep mutational scanning” (BMC Biology, 2022).

tested on: Escherichia coli TOP10; assay: shrunken log2 fold change of peptide-encoding DNA abundance (4.5 h post-induction vs induction); higher = less antimicrobial activity (less host growth inhibition); settings: time post-induction: 4.5 h; library: site-saturation at positions 5, 18, 19, 20
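Also: peptides expressed intracellularly from a pBAD plasmid library in pooled LB shake-flask culture, induced with 0.3% L-arabinose, DNA abundance read by NGS, three biological replicates, DESeq2 with apeglm shrinkage.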

Point of comparison: RRIRLRPPRLPRPRPRPSLWPRP, “shrunken log2 fold change” value 0.062. Against it:
- RRIRARPPRLPRPRPRPCDSPRP — within 0.2 log units, 0.0469
- RRIRDRPPRLPRPRPRPAWHPRP — within 0.2 log units, 0.2
- RRIRFRPPRLPRPRPRPGTNPRP — lower, -0.254
- RRIRKRPPRLPRPRPRPPLDPRP — higher, 0.809
- RRIRHRPPRLPRPRPRPKDSPRP — within 0.2 log units, 0.0292
- RRIRQRPPRLPRPRPRPTYNPRP — lower, -0.591
- RRIRMRPPRLPRPRPRPPWYPRP — within 0.2 log units, 0.117
- RRIRTRPPRLPRPRPRPGSSPRP — lower, -0.209
- RRIRARPPRLPRPRPRPMPLPRP — within 0.2 log units, -0.0326
- RRIRWRPPRLPRPRPRPINYPRP — lower, -0.387
- RRIRYRPPRLPRPRPRPEVYPRP — within 0.2 log units, -0.0597
- RRIRPRPPRLPRPRPRPSMDPRP — lower, -0.448
- RRIRARPPRLPRPRPRPEPFPRP — within 0.2 log units, 0.0204
- RRIRIRPPRLPRPRPRPRQFPRP — within 0.2 log units, -0.112
- RRIRLRPPRLPRPRPRPNDDPRP — lower, -0.248
- RRIRVRPPRLPRPRPRPAPNPRP — higher, 0.334
- RRIRMRPPRLPRPRPRPHDLPRP — within 0.2 log units, -0.0136
- RRIRERPPRLPRPRPRPDRVPRP — within 0.2 log units, 0.00251
- RRIRSRPPRLPRPRPRPAHGPRP — within 0.2 log units, 0.153
- RRIRVRPPRLPRPRPRPVYLPRP — within 0.2 log units, -0.108
- RRIRKRPPRLPRPRPRPSMKPRP — lower, -0.212
- RRIRRRPPRLPRPRPRPRCRPRP — higher, 1.57
- RRIRFRPPRLPRPRPRPLCVPRP — lower, -0.394
- RRIRTRPPRLPRPRPRPEYDPRP — within 0.2 log units, -0.0227
- RRIRERPPRLPRPRPRPIKKPRP — within 0.2 log units, 0.00021
- RRIRARPPRLPRPRPRPELEPRP — higher, 1.88
- RRIRMRPPRLPRPRPRPYSCPRP — lower, -0.706
- RRIRCRPPRLPRPRPRPVPCPRP — within 0.2 log units, 0.177
- RRIRCRPPRLPRPRPRPYGVPRP — lower, -0.159
- RRIRRRPPRLPRPRPRPGWPPRP — higher, 0.858
- RRIRFRPPRLPRPRPRPEGDPRP — within 0.2 log units, 0.0402
- RRIRRRPPRLPRPRPRPSRAPRP — higher, 0.369
- RRIRKRPPRLPRPRPRPWSQPRP — within 0.2 log units, -0.0225
- RRIRNRPPRLPRPRPRPGSNPRP — within 0.2 log units, -0.0081
- RRIRRRPPRLPRPRPRPWGHPRP — lower, -0.165
- RRIRMRPPRLPRPRPRPSFSPRP — lower, -0.176
- RRIRLRPPRLPRPRPRPDTWPRP — within 0.2 log units, 0.0224
- RRIRERPPRLPRPRPRPYFQPRP — lower, -0.967
- RRIRERPPRLPRPRPRPRQFPRP — lower, -0.174
- RRIRVRPPRLPRPRPRPISIPRP — within 0.2 log units, -0.133
- RRIRFRPPRLPRPRPRPCQCPRP — within 0.2 log units, -0.035
- RRIRGRPPRLPRPRPRPQFSPRP — within 0.2 log units, 0.0687
- RRIRNRPPRLPRPRPRPKWGPRP — within 0.2 log units, 0.147
- RRIRSRPPRLPRPRPRPQAHPRP — within 0.2 log units, -0.0418
- RRIRIRPPRLPRPRPRPCVIPRP — within 0.2 log units, -0.0683
- RRIRERPPRLPRPRPRPNNGPRP — within 0.2 log units, -0.0529
- RRIRWRPPRLPRPRPRPSGCPRP — within 0.2 log units, -0.0452
- RRIRKRPPRLPRPRPRPAIQPRP — higher, 0.396
- RRIRYRPPRLPRPRPRPTYDPRP — lower, -0.73
- RRIRTRPPRLPRPRPRPLTIPRP — lower, -0.315
- RRIRVRPPRLPRPRPRPMFTPRP — within 0.2 log units, -0.0798
- RRIRDRPPRLPRPRPRPKISPRP — lower, -0.203
- RRIRNRPPRLPRPRPRPVIMPRP — within 0.2 log units, 0.178
- RRIRKRPPRLPRPRPRPEYEPRP — within 0.2 log units, 0.0698
- RRIRFRPPRLPRPRPRPCDCPRP — within 0.2 log units, -0.0184
- RRIRQRPPRLPRPRPRPCGYPRP — within 0.2 log units, -0.0698
- RRIRIRPPRLPRPRPRPTDHPRP — lower, -0.368
- RRIRNRPPRLPRPRPRPHKRPRP — lower, -0.263
- RRIRERPPRLPRPRPRPHLIPRP — lower, -0.207
- RRIRYRPPRLPRPRPRPHQEPRP — within 0.2 log units, -0.0108
- RRIRKRPPRLPRPRPRPQNRPRP — lower, -0.169
- RRIRERPPRLPRPRPRPMVWPRP — within 0.2 log units, -0.0633
- RRIRYRPPRLPRPRPRPHEDPRP — lower, -0.172
- RRIRSRPPRLPRPRPRPFVRPRP — within 0.2 log units, 0.0631
- RRIRYRPPRLPRPRPRPQMAPRP — lower, -1.66
- RRIRTRPPRLPRPRPRPIQPPRP — within 0.2 log units, 0.00206
- RRIRWRPPRLPRPRPRPPVNPRP — within 0.2 log units, 0.13
- RRIRFRPPRLPRPRPRPVFMPRP — within 0.2 log units, -0.0805
- RRIRWRPPRLPRPRPRPYQWPRP — within 0.2 log units, -0.0641
- RRIRERPPRLPRPRPRPAQNPRP — higher, 0.269
- RRIRFRPPRLPRPRPRPAPIPRP — within 0.2 log units, 0.108
- RRIRPRPPRLPRPRPRPDHPPRP — lower, -0.147
- RRIRVRPPRLPRPRPRPKSTPRP — lower, -0.158
- RRIRYRPPRLPRPRPRPDAWPRP — within 0.2 log units, 0.0522
- RRIRWRPPRLPRPRPRPMDHPRP — within 0.2 log units, -0.128
- RRIRLRPPRLPRPRPRPETMPRP — within 0.2 log units, 0.0125
- RRIRSRPPRLPRPRPRPVKEPRP — within 0.2 log units, 0.0656
- RRIRIRPPRLPRPRPRPCIEPRP — within 0.2 log units, -0.112
- RRIRPRPPRLPRPRPRPCRIPRP — within 0.2 log units, -0.00277
- RRIRYRPPRLPRPRPRPIKCPRP — within 0.2 log units, -0.00104
- RRIRDRPPRLPRPRPRPEMCPRP — within 0.2 log units, 0.0536
- RRIRQRPPRLPRPRPRPQMYPRP — within 0.2 log units, -0.0131
- RRIRCRPPRLPRPRPRPYELPRP — lower, -0.18
- RRIRSRPPRLPRPRPRPKHNPRP — lower, -0.286
- RRIRQRPPRLPRPRPRPSADPRP — higher, 0.354
- RRIRPRPPRLPRPRPRPRSDPRP — within 0.2 log units, 0.179
- RRIRHRPPRLPRPRPRPAYLPRP — lower, -0.323
- RRIRNRPPRLPRPRPRPWYIPRP — within 0.2 log units, 0.00246
- RRIRNRPPRLPRPRPRPDTEPRP — within 0.2 log units, -0.0108
- RRIRLRPPRLPRPRPRPGHLPRP — within 0.2 log units, 0.00551
- RRIRWRPPRLPRPRPRPEMAPRP — higher, 1.14
- RRIRERPPRLPRPRPRPHKVPRP — lower, -0.361
- RRIRTRPPRLPRPRPRPVGNPRP — within 0.2 log units, 0.0924
- RRIRERPPRLPRPRPRPCCIPRP — within 0.2 log units, 0.0508
- RRIRNRPPRLPRPRPRPDKTPRP — within 0.2 log units, -0.0594
- RRIRNRPPRLPRPRPRPLVTPRP — within 0.2 log units, 0.0322
- RRIRHRPPRLPRPRPRPWICPRP — within 0.2 log units, -0.0191
- RRIRMRPPRLPRPRPRPRVIPRP — higher, 0.477
- RRIRSRPPRLPRPRPRPCWMPRP — within 0.2 log units, -0.0635
- RRIRERPPRLPRPRPRPDKSPRP — lower, -1.19
- RRIRDRPPRLPRPRPRPEMLPRP — higher, 1.4
- RRIRMRPPRLPRPRPRPDMFPRP — higher, 2.25
- RRIRHRPPRLPRPRPRPNAMPRP — within 0.2 log units, -0.0505
- RRIRVRPPRLPRPRPRPVFQPRP — within 0.2 log units, -0.092
- RRIRPRPPRLPRPRPRPMWWPRP — within 0.2 log units, 0.189
- RRIRTRPPRLPRPRPRPHVSPRP — lower, -0.287
- RRIRGRPPRLPRPRPRPVKIPRP — within 0.2 log units, 0.16
- RRIRHRPPRLPRPRPRPSGKPRP — within 0.2 log units, -0.0266
- RRIRQRPPRLPRPRPRPPCAPRP — higher, 0.293
- RRIRNRPPRLPRPRPRPWTYPRP — lower, -0.351
- RRIRVRPPRLPRPRPRPGDFPRP — within 0.2 log units, 0.0156
- RRIRERPPRLPRPRPRPMHHPRP — lower, -0.394
- RRIRWRPPRLPRPRPRPKPEPRP — higher, 0.351
- RRIRMRPPRLPRPRPRPKPVPRP — higher, 0.895
- RRIRTRPPRLPRPRPRPEPEPRP — higher, 0.323
- RRIRIRPPRLPRPRPRPQWDPRP — higher, 0.92
- RRIRHRPPRLPRPRPRPSTIPRP — within 0.2 log units, -0.0522
- RRIRWRPPRLPRPRPRPDCIPRP — within 0.2 log units, 0.0529
- RRIRSRPPRLPRPRPRPEKDPRP — within 0.2 log units, 0.124
- RRIRTRPPRLPRPRPRPPQLPRP — within 0.2 log units, 0.0198
- RRIRDRPPRLPRPRPRPYQDPRP — within 0.2 log units, -0.00141
- RRIRMRPPRLPRPRPRPSAVPRP — higher, 1.16
- RRIRMRPPRLPRPRPRPLKCPRP — within 0.2 log units, -0.0167
- RRIRKRPPRLPRPRPRPDWLPRP — higher, 0.308
- RRIRIRPPRLPRPRPRPYYTPRP — lower, -0.389
- RRIRTRPPRLPRPRPRPYMKPRP — within 0.2 log units, -0.0199
- RRIRLRPPRLPRPRPRPYDCPRP — within 0.2 log units, 0.0192
- RRIRRRPPRLPRPRPRPRWNPRP — higher, 0.326
- RRIRPRPPRLPRPRPRPVTQPRP — within 0.2 log units, 0.2
- RRIRLRPPRLPRPRPRPSAGPRP — within 0.2 log units, -0.0364
- RRIRHRPPRLPRPRPRPAQRPRP — higher, 0.359
- RRIRLRPPRLPRPRPRPNMYPRP — lower, -0.284
- RRIRERPPRLPRPRPRPAFAPRP — within 0.2 log units, 0.206
- RRIRMRPPRLPRPRPRPHITPRP — lower, -0.374
- RRIRGRPPRLPRPRPRPWELPRP — within 0.2 log units, 0.136
- RRIRMRPPRLPRPRPRPRQCPRP — higher, 0.594
- RRIRKRPPRLPRPRPRPTNSPRP — lower, -0.241
- RRIRYRPPRLPRPRPRPYCPPRP — lower, -0.848
- RRIRERPPRLPRPRPRPLFKPRP — lower, -0.543
- RRIRRRPPRLPRPRPRPCSSPRP — within 0.2 log units, 0.0589
- RRIRLRPPRLPRPRPRPDPPPRP — higher, 0.337
- RRIRRRPPRLPRPRPRPSTIPRP — within 0.2 log units, -0.121
- RRIRYRPPRLPRPRPRPFPRPRP — within 0.2 log units, -0.0964
- RRIRDRPPRLPRPRPRPLVIPRP — within 0.2 log units, -0.0438
- RRIRMRPPRLPRPRPRPVPNPRP — within 0.2 log units, 0.12
- RRIRVRPPRLPRPRPRPDFWPRP — within 0.2 log units, 0.239
- RRIRFRPPRLPRPRPRPNKRPRP — lower, -0.274
- RRIRRRPPRLPRPRPRPNFVPRP — lower, -0.142
- RRIRGRPPRLPRPRPRPFDWPRP — within 0.2 log units, 0.0459
